Source: the DeepSol protein solubility set

Assay: soluble on expression in E. coli; label from the status in PepcDB or PDB records

Sequence | soluble on expression in E. coli
GPGSMAKYFVPDTTFGLDAECAVCCCLWTDPVEISECQHIFCRGCVEGLETCPVCCGPVTRLDTPGKFILRLLQRTQGSCSACLWKGTYSDFKEKHFECLEADEVQSSDEGKILATTECVAMREYYLEGSGAKPEGSAPSPAAVDSFLVHPVAAVNAGSPHAQPFADATNNGAPVADAHLTCEQRAQWRQSLTSTARDYGMSDREYRELMECFPDFAVPVPDRGMAPELRWRGACRLLRFLNYPNHPDDVKNLFEMADRDALTESVPFHVLCLWLMLNRRNPAQWYHMTAEPYEQFLKVAQLLDVEATGLFQLDQCRILAEQYFERDVCDAEWLRIKRLLRSKDAEIRQSFLSSANRRRVNLDESFALPSAKLPLHDVLCAFTRHVDALKKEQQQQSEAERVQADYVRRIKRIVDFYEPDAVNQLDATLQKFTGEEESLLMTLTAMYGPEPP | soluble
GPMATESPNSVQKIVVHLRATGGAPILKQSKFKVSGSDKFANVIDFLRRQLHSDSLFVYVNSAFSPNPDESVIDLYNNFGFDGKLVVNYACSMAWG | soluble
MGSSHHHHHHSSGRENLYFQGHMRILWILPYSPWPTTSGGKTRQYHLLRSLAARGHRITVLLHSKQPVSAEDRQALEPFLERLVVLPRRPLRSLSTLLAALFAPYPLLASVNGLSAELQRTATELLREPWDVVQVEHSYSFQPYERPLRDAGQPFVLTEHNVESSLGAATYDRLPGWALPFVRYDQWRYRRWERRVMSQAAAVVAVTEKDARQLGAMLGRPVPVVVNGVDCEHFATARPTPEAQRVLFLGNYEYAPNVDAVEWMLDEILPRVWAHCPEARMSVCGYALPAEWAQRWSDPRIEWQGFVPDLLQLQSSSSVFLAALRHGGGSKLKVLEALAAGLPLASTAQGVSGLELRDGEDYLGGESAEQLANAVVRLLQDPAQARALGENGRAYVRRAHDWSVAASQLEQVYAGLAEGAPACA | soluble
SQPNSSIIKYPNKVRNLPGIAASLRTVGYSTHHLYGGDADFTNVRSYLYGTGYDEVTDVSSFPFKTRLSKWGTPDHISFPRLLDDCRRLEKEKKPYFYSFLTLSSHEPFDVPSQHHPDPYLNSVFYTDSCFGDYIRGMQQSPQWKNTLIIAVSDHGYPYPADQAMPDQPGRYGIVMLWAGGAILRPIRFEEVVSQSDLPATLLAQLGLTHDEFVFSKDVFRRNSPHFAYFSFPGLVGLATSEGTTIYDFAGDKIVYGHEAPLADQRAIAAKVMLQSVMKDMLSR | not soluble
MRNLAIVDLGSNSARMAVSRLHANGTAQEIKRVKEDTRLSEGMGTAHVLQPAAIERTIKALLNFRRLYEKMPNTDVIGITTAAVRMAQNQTEFLNQVKQEVGLDLRVLSGDDEAYYDYLGVANSLVIHDCLILDTGGASCELILVKNGRKQQLISIPFGAVTLSEQFGLDDLVPSASLFRAQMFLRNRLADIWWLSEAVHFPIILLGGANRTLARINRRRQQKLKVEDIHGYRLKTETVFHTFLDLLSRSKKGRQEISGMEYDRADIIVGGMLPLVTLLQMLDSDRVIFSESGVREGIISEHLNQLEHHHHHH | not soluble
GAMGIVGVGIDLVSIPDFAEQVDQPGTVFAETFTPGERRDASDKSSSAARHLAARWAAKEAVIKAWSGSRFAQRPVLPEDIHRDIEVVTDMWGRPRVRLTGAIAEYLADVTIHVSLTHEGDTAAAVAILEAP | soluble
MGSDKIHHHHHHVCSELAKDVPTNMSIKMPSLTPSSLSSLIPSSVPSEVQNVQGKDCMKEAIGADKIARQFSQAAKHYQEHDKVQRLSAQRLRTKMTPIGRLLDIGCGPGTDFSAAPGLNEVLGLDIAPGMLSQMLESFPSYKALCGDAQALPLSDASIDTLYSNLALQWCSDIKTAIGELARVLKPGSQCHLAIVVDGSLSELDALGLRVNAFEQAQTLLDGFSDSHWQIEHHSVEPLRVHFDDLKTLLYSIKGVGASAAMGSDVSQGSDVTQDSDASHGPDDTQGSVSKPPPRLRGRQDWLALCERAEKMRQPEGLPLTYQILFIHASRRG | not soluble
MSLADPGREGHLEQRILQVLTEAGSPVKLAQLVKECQAPKRELNQVLYRMKKELKVSLTSPATWCLGGTDPEGEGPAELALSSPAERPQQHAATIPETPGPQFSQQREEDIYRFLKDNGPQRALVIAQALGMRTAKDVNRDLYRMKSRHLLDMDEQSKAWTIYRPEDSGRRAKSASIIYQHNPINMICQNGPNSWISIANSEAIQIGHGNIITRQTVSREGHHHHHH | not soluble
KLEFREVDKDALVNDEKLLREFFGIYVLAHYRNRPSDLAILLDMPNHLPFIVTVNGKPVCSLHIAVEGNLDDETIEKIKEGYKPKGQIIPDLMLKHYWDFEFPKLVGARVVRIATHPSVMDMGIGSFALAKIVEWAYGRDMDWVGSGFGVSPELLRFWAKNHFTPVHITPQRNE | not soluble
MGSDKIHHHHHHMDQQTVLPEQDHDKSAIDELDFSCHSSGNFPGILAGLKLSLVVTSYQAHRLFFVRSNGIQIDVNFKNFVRPMGISVTPQQITLGTLNQVWRFRRSDDALALLDDPHADACYVASACHTTGLINIHDIAYGNKGLWVTNSAFSCLATLEPDYSFVPRWKPDFISALAPEDRCHLNGMALLDGEPAYVTTFNQSDTARSWRDGAKDQGTLINIKTGEQIFSNLTMPHSPRCYNGYVYFCESGHGLVRRYDPRTNEVVDVVKLAGFTRGMDFFGPLMFVGLSKTRFSSVAEPAPIAQQLEESQSGIWCINLTDHSVVGFVRFEGNIDQIYDVAVLSGVMYPELLLPDDELSMSVFNFPPLSYASEN | not soluble
AIAMQISDTYNQKHSLFNAMNRFIGAVNNMDQTVMVPSLLRDVPLDMEVKDEVHNTIGATNYFSRTDMHGYYILLKSIRNDIEWGVVQGEDRKKDKLSNMEISRLEDGDGEEDLEKQFHYHLSGLHTVLNKLTRKAHILTNRYKEEIGFGSWGH | soluble
MAHHHHHHMTSAYRIRDAAPADAGIMVRMLMSLASETENVELDEGEVRRGVTTLFEQGSLGRLYVAEEVPKGDTNIKGPSDGNRSSPQIVGVMTVTYEWSDWRGKLFLWIQSVYIIPSKRKQGIFQKFYDHLIRIMAEDPKYCGLRLAVNSKNEKAIRAYKQVGMKREKYQLMGRMKSKY | soluble
MGSDKIHHHHHHGGLGDKSFNDGTWAGIKQAAEELGIEAKVIQSYEQSDYIPNLSKAAEEADLVFAVGFMMTNDLFKVAKQYPDTYFVGIDITPPEGQILPNVLTFTFKEQEAAFLVGYVAAAMTKTGMVGFVGGIPIPPVERFRYGYEAGIKTYSVLHKKNVKILRGYTQDFEDPKKGKDLAMSQFAEGADIVFHASGACGNGVIEAAREKFSALAGSDKLVDLIDYYTTNGKGFFAIGVDMDQDYMAPGAVLTSAMKRVDVASYYGVVWAYEGTFEGGHRVLGISEDAVGISPMKYTKGLVPNRVIAELLYLEKLMKEGTLKVPETQEELDAFEVPQIEFPF | not soluble
MTTSNIKALIPSELRKVWEFILDIENYDAWRSDLSKTEVVSDKQFIEYTKDGYPTTFTVTLVEPYRRWEFDMQNSNMSGHWIGVFTDKGNETEIDFTECVEAKKMLMKPFVKSYLKKQQAQFVADIMKNFSLEHHHHHH | soluble
MSETFFHLLGPRTQPNDDSFSMNPLPITCQVNDEPSMAALEQCAHSPQVIALLNELQHQLSQRQPPLGEVLAVDLLNLNADDRHFINTLLGEGEVSVRIQQADDSESEIQEAIFCGLWRVRRRRGEKLLEDKLEAGCAPLALWQAATQNLLPTDSLLPPPIDGLMNGLPLAHELLAHVRNPDAQPHSINLTQLPISEADRLFLSRLCGPGNIQIRTIGYGESYINATGLRHVWHLRCTDTLKGPLLESYEICPIPEVVLAAPEDLVDSAQRLSEVCQWLAEAAPT | not soluble
MGSDKIHHHHHHMAHQPVGTGSSIEVSVNPGHSRTSGVISHMSDTLRVAIVGDSDLQGAHVAISKSEFSPAADATDYLVLKDKPATISISRPSSQRVVGITTGSTTLIDFPEGTGSPFGINDMVTLRVIDQPYFEAAIGFGTVTKVWNAANIGGHYSTRITVNADTSGIKTDYVSTNWAELRSSFKVSSLGIGVGGKTGALYFQQVQITGE | not soluble
PFEGNRVDIYTGGYSKLQALLRELQKARLHIHMEYYIFEDDPVGRLVRDVLIEKAREGVEVRVIYDDVGCWHVPHRFFEEMRDAGIEVRSFLKVRFPLFTSKVNYRNHRKIVVIDGRIGFIGGMNLAERYMRGFSWGIWRDTHILLEGKAVHGLQTAFLLDWYFVDRTLITASRYFPKIEAYGNSLVQIVTSEP | not soluble
